Results reported in PMC3260422 (Structure(London, England:1993), 2011).

Molecular target: T1, human Colony Stimulating Factor-1 (hCSF-1), residues 1-149 (human)
T1 sequence (P09603 whole entry, looked up): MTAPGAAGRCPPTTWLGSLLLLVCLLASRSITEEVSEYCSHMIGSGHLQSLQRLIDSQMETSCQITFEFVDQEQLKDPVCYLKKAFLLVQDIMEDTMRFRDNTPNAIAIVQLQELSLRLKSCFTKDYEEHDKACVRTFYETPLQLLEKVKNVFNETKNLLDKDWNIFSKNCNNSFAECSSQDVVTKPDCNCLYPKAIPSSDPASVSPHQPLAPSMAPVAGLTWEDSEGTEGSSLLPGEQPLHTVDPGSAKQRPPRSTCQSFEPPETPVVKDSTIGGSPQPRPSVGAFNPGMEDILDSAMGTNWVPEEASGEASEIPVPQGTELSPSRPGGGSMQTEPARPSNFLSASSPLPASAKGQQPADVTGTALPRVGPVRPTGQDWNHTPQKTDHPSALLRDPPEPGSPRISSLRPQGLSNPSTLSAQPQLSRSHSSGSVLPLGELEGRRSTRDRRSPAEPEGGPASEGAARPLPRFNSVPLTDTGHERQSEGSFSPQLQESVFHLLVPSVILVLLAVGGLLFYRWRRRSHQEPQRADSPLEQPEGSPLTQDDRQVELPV
Test: ITC

B1: human CSF-1 receptor, first three extracellular domains (hCSF-1R_(D1-D3)) (domain or fragment)
chain: IPVIEPSVPELVVKPGATVTLRCVGNGSVEWDGPPSPHWTLYSDGSSSILSTNNATFQNTGTYRCTEPGDPLGGSAAIHLYVKDPARPWNVLAQEVVVFEDQDALLPCLLTDPVLEAGVSLVRVRGRPLMRHTNYSFSPWHGFTIHRAKFIQSQDYQCSALMGGRKVMSISIRLKVQKVIPGPPALTLVPAELVRIRGEAAQIVCSASSVDVNFDVFLQHNNTKLAIPQQSDFHNNRYQKVLTLNLDQVDFQHAGNYSCVASNVQGKHSTSMFFRVVES
modifications: N-linked glycosylation (produced with kifunensine)
- Kd: 213 nM
